# Test results as given in US7842469B2, “Bioluminescence resonance energy transfer (BRET) systems and methods of use thereof” (Stanford University, priority 2005, dated 2010).
# Substitutions are numbered along the chain they refer to. In names and notes the source's numbering stands. Read-outs that look alike come from different tables or passages of the source.
# B1: C124A/M185V: double mutant (C124A/M185V) Renilla Luciferase protein (SEQ ID NO: 2) (protein)
# chain: MASKVYDPEQRKRMITGPQWWARCKQMNVLDSFINYYDSEKHAENAVIFLHGNAASSYLWRHVVPHIEPVARCIIPDLIGMGKSGKSGNGSYRLLDHYKYLTAWFELLNLPKKIIFVGHDWGAALAFHYSYEHQDKIKAIVHAESVVDVIESWDEWPDIEEDIALIKSEEGEKMVLENNFFVETVLPSKIMRKLEPEEFAAYLEPFKEKGEVRRPTLSWPREIPLVKGGKPDVVQIVRNYNAYLRASDDLPKMFIESDPGFFSNAIVEGAKKFPNTEFVKVKGLHFSQEDAPDEMGKYIKSFVERVLKNEQ
# modifications: Chemically synthesized Renilla Luciferase
# B2: Native RLuc: Luciferase from Renilla reniformis, native enzyme (SEQ ID NO: 1) (protein)
# chain: B1 chain with A124C, V185M
# modifications: Chemically synthesized Renilla Luciferase
# B3: C124A: RLuc with the C124A mutation (C152A in Liu and Escher), with Myc epitope (protein)
# chain: B1 chain with V185M
# modifications: Myc epitope tag; Chemically synthesized Renilla Luciferase
# Experiments:
# CHO cells = assay: Mammalian expression, transient transfection, light output in CHO cells; format: cell-based, Chinese Hamster; conditions: pcDNA 3.1 CMV plasmid, 24 hours post transfection, coelenterazine
# Excerpt: (§1) Mammalian Expression: In order to construct mammalian expression vectors, bacterial expression vectors containing the desired mutations were used as templates for PCR, with primers designed such that the N-terminal pelB sequence would be replaced by a methionine codon and a C-terminal stop codon would replace the Myc epitope and 6×His tag. The primers also contained appropriate NheI and HindIII restriction sites to allow insertion of the product into the pcDNA 3.1 plasmid (Invitrogen). The resultant plasmids were transiently transfected using SuperFect (Qiagen) into 293T or Chinese Hamster Ovarian (CHO, ATCC# CCL-61) cells growing in 24 well plates following the manufacturer's protocol. Twenty-four hours post transfection, 0.5 μg/well of coelenterazine was added, and the plates were imaged in an IVIS 50 imaging system (Xenogen, Alameda, Calif.).
# 293T cells = assay: Mammalian expression, transient transfection, light output in 293T cells; format: cell-based, human; conditions: for Light output after transient transfection, 293T: pcDNA 3.1 CMV plasmid, 24 hours post transfection, coelenterazine
# Excerpt: as §1
# [1] = Luciferase activity of purified RLuc mutants (light output integrated over 10 s, luminometer); format: biochemical; conditions: for Activity (relative to RLuc) bc / Activity (relative to RLuc) bdc / Activity (relative to RLuc) cp / Activity (relative to RLuc) n / Activity (relative to RLuc) native: relative to native enzyme
# Excerpt: Luminometer Calibration: Light measurements were made using a Turner 20/20 and later a Turner 20/20n luminometer (Turner Designs, Sunnyvale, Calif.). The luminometers were calibrated to absolute units (photons/s) using the luminol light standard performed in dimethyl sulfoxide (DMSO). No corrections were applied for the spectral sensitivity of the luminometer, as the spectral peak of luminol chemiluminescence in DMSO (486 nm) is close to the spectral peak of Renilla Luciferase bioluminescence (482 nm).
# Characterization of Renilla Luciferase Mutants: Luciferase activity was measured by adding 1 μl of sample (diluted as necessary in EB containing 1% HSA) to 100 μl room temperature 100 mM sodium phosphate buffer (pH 7), manually adding 1 μl of 0.5 μg/μl coelenterazine or analog, manually mixing, and reading for 10 s in a luminometer. The time between the addition of the luciferin and the start of measurement was approximately 4 s.
# [2] = Serum stability in mouse serum at 37° C.; format: in vitro ADME; conditions: mouse serum, 37° C., mono-exponential fit
# Description: (§2) Serum stability measurements were done by mixing 0.5 μl dilute Luciferase with either 20 μl mouse serum or 50 μl rat serum (Equitech-Bio, Kerrville, Tex.) placing the sample in a 37° C. incubator, and removing aliquots for activity testing. To calculate serum half-lives, mono-exponential decay curves were fit to the serum stability data using a Nelder/Mead Simplex non-linear least squares minimization algorithm provided by the Octave numerical programming language. Emission spectra at ambient temperature were measured using a Triax 320 (Horiba Jobin Yvon, Edison, N.J.), which incorporates an optical grating device with a liquid N2 cooled CCD detector.
# [3] = Quantum yield measurements; format: biochemical; conditions: for Quantum Yield (%) bc: benzyl-coelenterazine; for Quantum Yield (%) bdc: bisdeoxycoelenterazine; for Quantum Yield (%) cp: coelenterazine-cp; for Quantum Yield (%) n: coelenterazine-n; for Quantum Yield (%) native: native coelenterazine
# Description: For quantum yield measurements, separate 1 μl drops of protein (about 2 pm) and substrate (0.2 pm) were placed in a tube, 100 μl of 100 mM sodium phosphate buffer (pH 7) was injected by the luminometer to mix, and the total light output was integrated (generally 5-10 min). For coelenterazine-n, the protein amount was increased 10 fold and the acquisition time lengthened to insure the reaction approached completion.
# [4] = Bioluminescence emission spectra; format: physicochemical; conditions: emission spectrum with native coelenterazine
# Description: as §2
# [5] = Serum stability in rat serum at 37° C.; format: in vitro ADME; conditions: mono-exponential fit
# Description: as §2
# [6] = cited from earlier work
# [7] = Kinetics (Michaelis-Menten fit to initial reaction velocity); format: biochemical; conditions: for Km / kcat: coelenterazine 0.038 to 24 μM, formal standard error of fit
# Description: Kinetics: Kinetics were assessed by injecting 100 μl of 100 mM sodium phosphate buffer (pH 7) containing coelenterazine onto 1 μl of protein (diluted appropriately in EB containing 1% HSA), and recording the light output for 20 min. The final coelenterazine concentrations tested were 118, 24, 4.7, 0.94, 0.19, and 0.038 μM. The final Luciferase concentrations were in the range of 1-7 pM. Coelenterazine absorbance was corrected for, although this was only significant for the highest concentration (10% attenuation). The values were converted from photons/s to molecules/s using the data from the quantum yield measurements, converted from flux units to mass units via integration, and processed using the kinetic curve fitting program Dynafit.
# [8] = test system: 293T cells implanted in nude mice; assay: In vivo animal imaging of BRET^2 expression with cooled CCD camera; parameters: species or system mouse; conditions: 3×10^6 transfected 293T cells s.c. in nude mice, DBC i.v.
# Description: In Vivo Animal Imaging of BRET^2 Expression by Using a Cooled CCD Camera: 293T cells transiently transfected with either phRluc or pBRET^2 were harvested 24 hours post-transfection and resuspended in PBS. An aliquot of 3×10^6 cells each was injected s.c. in a set of 3 anesthetized (ketamine:xylazine 4:1) nude mice. One hour after cell injection, 20 μg/mouse of DBC diluted in D-PBS (100 μl total volume) was injected via tail vein (i.v.) and imaged immediately using the CCD camera. For the deep tissue signal detection experiment, 3×10^6 cells each were injected intravenously in another set of anesthetized nude mice, and a scan was performed half an hour later after 100 μg/mouse of DBC injection. For protein-protein interaction experiments, 293T cells were transiently transfected with either pBRET^2, pFKBP12-hRluc alone or co-transfected with pFKBP12-hRluc and pGFP^2-FRB in 1:1 DNA ratio. The cells were harvested 24 hours post-transfection and re-suspended in PBS after counting the cell number. An aliquot of 5×10^6 cells each was injected s.c. in a set of 6 nude mice. Three of these mice were kept aside, while the other 3 mice received single dose of 5 mg/kg rapamycin intra-peritonially (i.p.). After 7 hours, mice were injected intravenously with 25 μg of DBC/mouse and imaged using specified filters. […]
# [9] = RLuc purified directly from Renilla reniformis; cited from earlier work
# [10] = recombinant RLuc, hamster blood at 37° C.; cited from earlier work
# [11] = test system: HT1080 fibro-sarcoma cells; assay: BRET vectors with RLuc mutants fused to GFP^2, CCD camera spectral imaging in cells; format: cell-based; conditions: Coelenterazine400a; normalized with CMV-FLuc; P<0.01
# Description: Methods: Three different mutations of RLuc, a single mutation C124A, a double mutation C124A/M185V, and a combination of eight mutations called RLuc8, were fused with GFP^2 and tested in HT1080 fibro-sarcoma cells by using CCD camera based spectral imaging. The new vectors were also tested in a small animal tumor model with implanted cells at various tissue depths.
# FIG. 7 illustrates a comparative chart showing normalized donor (RLUC) and acceptor (GFP2) signal as measured from 293T cells transiently transfected with the marked plasmid vectors. BRET2 represents GFP2-Rluc, BRET-C represents GFP2-Rluc C124A, BRET-M represents Rluc C124A/M185V, BRET-Rl8 represents GFP2-Rluc8, RL represents Rluc, RL-C represents RLuc C124A, RL-M represents RLuc C124A/M185V, and Rl8 represents Rluc8. CCD camera scans were performed by adding Coelenterazine400a to the well plates. The cells were co-transfected with CMV-FLuc plasmid and scaned at the same time using D-Luciferin substrate for normalization purposes.
# FIGS. 8A and 8B illustrate comparative assessments on signal quantification from HT1080 cells stably over-expressing GFP2-Rluc8 (8A) and GFP2-Rluc (8B) plasmid vectors. […] The line represents the calculated BRET ratios at each time point of measurements. […]
Molecule,"Light output after transient transfection, CHO (CHO cells)","Light output after transient transfection, 293T (293T cells)",Activity (relative to RLuc) bc ([1]; benzyl-coelenterazine),Activity (relative to RLuc) bdc ([1]; bisdeoxycoelenterazine),Activity (relative to RLuc) cp ([1]; coelenterazine-cp),Activity (relative to RLuc) n ([1]; coelenterazine-n),Activity (relative to RLuc) native ([1]; native coelenterazine),Serum τ1/2 (h) mouse [2] [h],Quantum Yield (%) bc [3] [%],Quantum Yield (%) bdc [3],Quantum Yield (%) cp [3] [%],Quantum Yield (%) n [3] [%],Quantum Yield (%) native [3] [%],Wavelength (nm) mean [4] [nm],Wavelength (nm) peak [4] [nm],Serum τ1/2 (h) rat [5] [h],Km [7] [µM],kcat [7] [s⁻¹],further results
B1,172.4 ± 8.4 photons × 10^6/s/cm^2/steradian,174.1 ± 25.7 photons × 10^6/s/cm^2/steradian,3.0,44,15,7.8,3.4,5.7,6.3 ± 0.1,(174.4 ± 6.7) × 10^−3%,10.1 ± 0.2,9.4 ± 0.4,6.9 ± 0.3,500,485,3.7,,,increase in light relative to C124A after transient transfection into mammalian cells (293T cells; mammalian cells (293T or CHO)): approximately 3 fold; light output compared to M185V alone ([1]; bisdeoxycoelenterazine (Coelenterazine 400a)): 2 fold; increase in activity compared to the C124A mutant ([1]; in vitro): approximately 3 fold
B2,11.7 ± 1.2 photons × 10^6/s/cm^2/steradian,22.5 ± 0.7 photons × 10^6/s/cm^2/steradian,,,,,,0.9,3.2 ± 0.04,(6.1 ± 0.9) × 10^−3%,4.7 ± 0.03,6.1 ± 0.2,5.3 ± 0.1,497,482,0.4,2.9 ± 1,3.9 ± 0.4,"reported peak light flux ([6]; RLuc purified directly from Renilla reniformis): 6.5×10^22 photons/s/mole enzyme; Km ([6]; in the presence of benzyl-coelenterazine, read-out: previously published Km): 2 µM; reported peak light flux ([6]; recombinant RLuc): 9×10^22 photons/s/mole enzyme; Activity (photons/s/mole enzyme) bc ([1]; benzyl-coelenterazine, 10 s integration, absolute units): 5.4 × 10^22 photons/s/mole enzyme; Activity (photons/s/mole enzyme) bdc ([1]; bisdeoxycoelenterazine, 10 s integration, absolute units (overestimation per footnote)): 5.8 × 10^19 photons/s/mole enzyme; Activity (photons/s/mole enzyme) cp ([1]; coelenterazine-cp, 10 s integration, absolute units): 1.7 × 10^22 photons/s/mole enzyme; Activity (photons/s/mole enzyme) n ([1]; coelenterazine-n, 10 s integration, absolute units): 8.3 × 10^21 photons/s/mole enzyme; Activity (photons/s/mole enzyme) native ([1]; native coelenterazine, 10 s integration, absolute units): (3.2 ± 0.3) × 10^22 photons/s/mole enzyme; Peak light flux ([7]; recombinant RLuc, 24 μM coelenterazine): 1.2±0.2×10^23 photons/s/mole enzyme; average radiance on GFP^2 filter, subcutaneous implants [8]: 0.342±0.031×10^3 photons/sec/cm^2/steradian; previously published emission peak [9]: 482 nm; half-life in hamster blood [10]: 36 min"
B3,64.0 ± 4.9 photons × 10^6/s/cm^2/steradian,62.8 ± 12.9 photons × 10^6/s/cm^2/steradian,0.75,0.68,0.79,0.63,1.2 ± 0.1,7.1 ± 0.4,3.6 ± 0.1,(7.7 ± 0.5) × 10^−3%,5.2 ± 0.1,6.4 ± 0.01,5.4 ± 0.3,498,482,6.6 ± 0.5,2.7 ± 0.8,4.7 ± 0.4,increase of normalized luciferase signal in comparison to cells expressing GFP^2-RLUC [11]: No significant improvements
